Reference: publication PMC6604950, “The ChlD subunit links the motor and porphyrin binding subunits of magnesium chelatase” (Biochemical Journal, 2019)

T1: ChlH (purified recombinant, Synechocystis) (Synechocystis sp. PCC 6803, UniProt P73020 1-1331, labelled with NHS-NT647 dye in the MST experiments; activated with EDC/NHS in the cross-linking experiment)
T1 sequence (looked up): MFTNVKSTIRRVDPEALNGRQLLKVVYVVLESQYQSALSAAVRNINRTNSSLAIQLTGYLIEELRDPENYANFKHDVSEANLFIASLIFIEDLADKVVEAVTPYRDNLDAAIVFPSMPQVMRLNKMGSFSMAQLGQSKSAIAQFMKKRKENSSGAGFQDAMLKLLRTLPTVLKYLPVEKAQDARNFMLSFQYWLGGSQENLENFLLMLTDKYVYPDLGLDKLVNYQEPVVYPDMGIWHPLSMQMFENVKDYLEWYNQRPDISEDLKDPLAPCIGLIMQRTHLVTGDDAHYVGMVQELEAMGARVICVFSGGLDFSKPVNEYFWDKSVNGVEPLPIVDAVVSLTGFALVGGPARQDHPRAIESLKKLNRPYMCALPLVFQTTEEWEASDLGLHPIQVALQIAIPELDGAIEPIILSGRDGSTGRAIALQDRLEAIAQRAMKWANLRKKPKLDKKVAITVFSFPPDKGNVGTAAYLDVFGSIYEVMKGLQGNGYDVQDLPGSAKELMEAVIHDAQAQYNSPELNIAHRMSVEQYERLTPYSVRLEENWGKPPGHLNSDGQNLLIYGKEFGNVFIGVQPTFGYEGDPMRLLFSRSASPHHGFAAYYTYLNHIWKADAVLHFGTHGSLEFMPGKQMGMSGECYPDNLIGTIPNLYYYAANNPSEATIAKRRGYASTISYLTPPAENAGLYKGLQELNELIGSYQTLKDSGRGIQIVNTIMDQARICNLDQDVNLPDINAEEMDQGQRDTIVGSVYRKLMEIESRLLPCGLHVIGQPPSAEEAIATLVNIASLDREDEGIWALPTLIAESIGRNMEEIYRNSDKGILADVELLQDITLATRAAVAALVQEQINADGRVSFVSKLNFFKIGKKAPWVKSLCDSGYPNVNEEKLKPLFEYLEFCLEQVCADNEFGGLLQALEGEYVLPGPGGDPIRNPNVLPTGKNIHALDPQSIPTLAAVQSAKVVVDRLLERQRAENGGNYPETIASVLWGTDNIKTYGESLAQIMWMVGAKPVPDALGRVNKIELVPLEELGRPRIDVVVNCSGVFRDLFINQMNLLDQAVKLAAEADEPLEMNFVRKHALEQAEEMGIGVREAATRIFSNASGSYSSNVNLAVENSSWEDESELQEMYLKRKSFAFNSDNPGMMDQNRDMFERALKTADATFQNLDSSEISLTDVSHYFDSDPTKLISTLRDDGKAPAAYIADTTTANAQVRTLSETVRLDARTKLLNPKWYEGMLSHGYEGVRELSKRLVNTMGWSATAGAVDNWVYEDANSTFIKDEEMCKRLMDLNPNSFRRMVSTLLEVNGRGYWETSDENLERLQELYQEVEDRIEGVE

B1: ChlD S554R (natural protein)
chain: not shown
notes: Magnesium chelatase subunit ChlD, Synechocystis sp; PCC 6803, MIDAS motif point mutant; also called type II MIDAS mutant; source: E. coli, purified as wild type
B2: ChlD wild type (purified recombinant, Synechocystis) (natural protein)
chain: not shown
modifications: labelled with NHS-NT647 dye where it was the labelled partner in MST (ChlD-ChlD titration)
notes: Magnesium chelatase subunit ChlD (~75 kDa), Synechocystis sp; PCC 6803; also called WT ChlD
B3: ChlD S489A (natural protein)
chain: not shown
notes: Magnesium chelatase subunit ChlD, Synechocystis sp; PCC 6803, MIDAS motif point mutant; also called MIDAS mutant; source: E. coli, purified as wild type
B4: ChlD S491A (natural protein)
chain: not shown
notes: as for B3
B5: ChlD D487E (natural protein)
chain: not shown
notes: as for B3
B6: ChlD QuinE (E510Q/E513Q/E600T/E603P/E605T) (natural protein)
chain: not shown
notes: Magnesium chelatase subunit ChlD, Synechocystis sp; also called quintuplet mutant of ChlD; source: E. coli, purified (as described previously)
B7: ChlD truncation B (AAA+ domain with the polyproline region) (domain or fragment)
chain: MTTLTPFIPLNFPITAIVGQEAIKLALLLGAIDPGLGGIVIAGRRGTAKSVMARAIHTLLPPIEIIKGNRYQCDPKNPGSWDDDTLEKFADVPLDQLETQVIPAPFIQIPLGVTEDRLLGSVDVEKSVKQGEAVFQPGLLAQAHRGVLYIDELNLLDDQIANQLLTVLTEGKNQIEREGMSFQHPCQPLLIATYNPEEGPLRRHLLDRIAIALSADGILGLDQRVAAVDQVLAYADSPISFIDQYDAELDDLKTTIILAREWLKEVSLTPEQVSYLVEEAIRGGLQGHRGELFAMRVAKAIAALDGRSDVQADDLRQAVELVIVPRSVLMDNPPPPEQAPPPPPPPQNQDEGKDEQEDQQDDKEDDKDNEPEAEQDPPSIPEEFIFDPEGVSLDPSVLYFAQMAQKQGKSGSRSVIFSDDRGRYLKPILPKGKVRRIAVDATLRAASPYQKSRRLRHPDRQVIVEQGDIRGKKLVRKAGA
B8: ChlD truncation A (AAA+ domain alone) (domain or fragment)
chain: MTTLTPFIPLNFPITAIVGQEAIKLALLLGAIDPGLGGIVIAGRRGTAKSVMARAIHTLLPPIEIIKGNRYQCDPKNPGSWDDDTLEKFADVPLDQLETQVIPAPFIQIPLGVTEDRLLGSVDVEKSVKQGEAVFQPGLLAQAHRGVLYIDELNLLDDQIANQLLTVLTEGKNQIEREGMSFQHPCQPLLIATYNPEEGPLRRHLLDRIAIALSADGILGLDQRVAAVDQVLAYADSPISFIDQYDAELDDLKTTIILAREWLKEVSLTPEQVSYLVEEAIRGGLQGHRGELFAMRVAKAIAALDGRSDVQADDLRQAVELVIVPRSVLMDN

The binders below were run against T1, ChlH (purified recombinant, …) (assay: cell-based or functional assay). Conditions: not given.
For B1, the “magnesium chelatase activity, rate relative to the wild-type protein” value was roughly 5%.

Target: the molecule itself
Assay: MST; control ChlD-ChlD titration (Supplementary Figure S3); monomer to dimer
Conditions: not given
In the case of B2, the Kd is reported as 296 nM and the “stoichiometry N” value is reported as 2.

These binders were tested against T1, ChlH (purified recombinant, …) (assay: MST; ChlD (or variant) titrated into 20 nM NT647-labelled ChlH; 50 mM Tris/NaOH, 0.2% Pluronic F-127, pH 7.8, without Mg2+; single-site model; Kd is an empirical description over all oligomeric states of ChlD). Conditions: both partners purified.
With B2 the Kd was 2100 nM. B3 gave a Kd of 3210 nM. B4 showed a Kd of 351 nM. Work on B1 yielded a Kd of 988 nM. With B5 the Kd was 1490 nM. In the case of B6, the Kd is reported as 512 nM. With B7 the Kd was 6760 nM. B8 gave a Kd of 5930 nM.

What follows are binders tested against T1, ChlH (purified recombinant, …) (assay: MST; ChlD (or variant) titrated into 20 nM NT647-labelled ChlH; 50 mM Tris/NaOH, 0.2% Pluronic F-127, pH 7.8, with 10 mM Mg2+; single-site model; Kd is an empirical description over all oligomeric states of ChlD). Conditions: both partners purified.
Binder B2 has a Kd of 331 nM. Binder B3 has a Kd of 1980 nM. For B4, the Kd was 147 nM. Binder B1 has a Kd of 481 nM. With B5 the Kd was 842 nM. B6 was tested, and the Kd was 339 nM. Work on B7 yielded a Kd of 10500 nM. B8 was tested, and the Kd was 14600 nM.
